From the supplement of paper PMC12636428

Tested on: Saccharomyces cerevisiae
Assay: transcriptional activation domain activity (GFP:mCherry ratio, weighted mean of sorted bins, harmonized to initial dataset scale) (arbitrary fluorescence ratio units); higher = stronger transcriptional activation
Conditions: beta-estradiol 1 µM; induction time 4 h
Outline: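 After a 1:5 dilution into SC with 1 uM beta-estradiol and 4 hours at 30 °C, yeast diploids carrying a GFP reporter and URA3-integrated barcoded tiles were sorted into 8 bins by GFP:mCherry ratio. The tiles were fused to an estradiol-inducible synthetic transcription factor. Barcodes were sequenced, tiles below 50 reads were discarded, and activation activity was taken as the read-weighted mean of bin median fluorescence, averaged across barcodes and linearly mapped onto the initial dataset scale.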

Sequence | transcriptional activation domain activity
FCRALIHSQGEGPKSIYESSVISLTEAARAIINISRRSFTLHQTLTCRMWYFL | 49900
YDKKTNVLGFDDGTFDNKVFNRTNFEEKAPFDIPLDEFFTELEKHSNVSQFNT | 112000
AVGRGEFAQPVLVPGGGVAIVAIGRARWIRDEEKNGERRYRVGVSWSADHRVV | 40100
TNPAFANSSLPPIHSSFSTLSNPPSIFCVLPPFLPSFPLSFPFFFSFPFFLFL | 52500
PGLVGVFFIFSSPFSGFCFCFCFCLFELIFFFFFFFYYFLSRIGVLTRLSAGF | 45800
NESGPGAADEDAEEDDEESDEDGAGRKRKKPKVEPKPKPERKAPAPAPADGEK | < 6570
MQCSISYWRQNQVTDNFALFYIIPCFLSILLYYSSFQSYYEQRAWRLILFFYF | 56700
VGSLVYVTRYSEHLLVSGEFGPELLGAGAYYGGMLWFFFSSQNYRLLFHWQFW | 49800
DLDFRGIFMTDWYANYDYMVSDLIMPGFWRVPVLPKWYNWTGFFASWPLIGQF | 68800
GSKTRSTTSRDRSVRNDDKKSTTSGRRSVVSGSKEERRRRSSKKSVPAASETA | 34600
RYLNITGRCRCSLQDLSFSVLLIRSLGAPLVELHVCCLYWWFGAYRLRFIFFI | 55000
GGKRKGEQGHGAGQRGKGDGQGRGGRGRGRGEGGEEKGRRAERKEERGRRGRS | 16300
EQVAPKFWKHGLFWAMCNEGMWLKELEFYYMINYYFKYLELLDTVFLALKKKP | 40200
GAGPVGYGPQGAGEGDGESKSDSETMRTATTQPPPKPKQLYFIYVLASHYGLG | 61700
SSSSTPSAFSSATPSSLFGSGASSTAKPFGSAASPSPFGAAKSSPSLFGSGGG | 69900
FDETIIQLRKTVLSCSTCCSIALKWFAEHEYALVGLLLRCLHMKVRSQIRAFL | 44000
KGANQAVACAKLSRSRPQPSSSTSSSSTEAGANDAETHATAHVSMLGAVGDDS | 18700
IWGSANTLPKYLYFISRYFGLLGQLVVSTNLVPMFCFDYLVWSFGFLFTLILS | 87200
TFQHLSRTTYEDFVNTKQFFARVRVLRRLYSCNKQEIWQSLIFSTLACLLDRP | 60900
MLYSFRLLFILFFFLLEALSICRRCNVTGRGCFRDWDCWNACHQYAVSPRWGI | 41900
CPELYQTHLQITGIITIDTYFSFNDYDAWVQLRDVLDLWLGRAWVFNVVIWKY | 61500

Sequence | transcriptional activation domain activity
MRIIIFMSLLLLKIIMILLLLLLRIKFNWFSFFSILKMLLSMKIMMLFLFLLL | 35900
GFTFYFSLHFHIFHIFHYLWEPRATILFFLTSLLFFFFTPIFTFMHCIIFIGF | 78900
KEVMDQIHAIWCILLYLYYGTLETDHVFRFCFAPNVSRPLSELEQRFFNERHG | 48000
ASASREKGKGKGREEEKKEGESKGKEKGRKEEEKGGEEKGGEEEDDEDEDEDE | 30900
PLVRWMLDYVINHGEIVHSHPSIRTLATSLIDHPYFLSFICSSFFIEPRGLSG | 34800
EVIAGQQYAGLSFFAFVLRQDDIKSLDLILAEYFKVPTALDIIRSSLYLAIYS | 48600
EEEEPSDEGEGEELDENGDVVMADVSQKSTKSKKEEPAQRYIGSVEVLSKLNL | < 6570
HHTLPYRFRLDGHAAYLGLFIHFLSVLVVVYIFRLEVCVRYRPGWMRCQCWWR | 81600
MFLEGVLQFVFFFFFFFPVYLSTFIFKFLAVGFLGSYLFLLVQLMQLIHSLIL | 31900
RRTPFLGVGRSEGKMRLEKFVDEIGQQREDGTDEFLVRGSKEEKTDVVTAVNH | 9610
VMSYLLCVALVFPVMIVLMLLGCVWFLIVLFFMLGVLIFIMCIGPLYVILKAP | 10200
FITSLMLFQAVPCFLVHVIMLFPFFRNFPHQFRYRDPFTMVLLSFSFIFLFTF | 62700
LGVLLLLLLYANVVLLIYHAPTTRKPFDLAFIHAPVRAFMLLPLTILFPYSLF | 57300
RIWLRRLFDIARLLSVGVSNQWSLRMLLDRDAFTPLLIKWLNYYSLRIWTSAV | 68500
RNLMVIVLVVGNLRLVIENIQKYGVLICIRCHDFRQHDVMLGLLLYFLIPCHL | 53400
EEAAVESEAPKKKGRAKRVKPEPEVDDEPAVEQPKKKGRVKKAKVEPEPEADE | 46900
KEEEDRKRAEEEEERERERRRQDEVDRRRRMQDEAKQREAEAKKQAARAAALA | 35500
YICQYHGSLIGKHFKSLMQVMPFLIYDLVAQDILCAWNIIGVLVVLLWHTEIE | 81900
MSTNERKKQRFVKSIHKEKKNTACCSSTNVIGTSKLSSPVIAVVVVVVVVCWG | 45100
LLTFNLEVKRIWTLRWKLPKYLFVLNRYILPPFLFFEAFSNITYNLGKHVSRI | 50800
AGGGRKAKATQTGAGASRQKTKTGFQTGRSRRAGNAKTKTNRRAINKPRNGDS | 28900

Sequence | transcriptional activation domain activity
ADSRRKTRRVRKRKSSRRHQEEGEEEESESEEEEADARKRRKKEKGGGKDKKK | 23600
NIPIESSWHLFTNYVGLDIKQIVLLGKSLHYFNPGFLLHVNLFNWLWPKIVQL | 63300
MSMLQVQWCYVMLYFDLSTSELLYFYLYLIFYSSFLFFNLWWLLNVDDASAPA | 41500
LIYQKLPRVLKRPGWNFHPAVALTFSILLFAAYPLICFFNILIAWSNEVSFHN | 54300
TTAATEPTKTEAAPPAPATEPAPAAEPAAPAAEPAKEEAKPATEVKPEAPAAA | 24800
ARGTTTPPPAPSTGSPSAPAAASRSSTGRSSATASCRTARCARASGRSAPGAG | 42900
SFSLLALSFFFLHVLFSLIIAPCVWFWFFSWLWFWLDLSSPRTYCIHIWLIHP | 39300
LSSYLLKNALDVFCKYLPHVSKPVETVFKVKRKYSWMVLFLLYCILTHTNYHC | 26800
EHIEVDLTGIEEVTTGAGLLSRTRTSRHCFLHKTKVLQILDMKCTHDHPSPSS | 29800
EEKAPFDIPLDEFFTELEKHSNVSQFNTLDVSEGNQVINESASTNTSSALNCQ | 103000
SYWLTIQRYGGWFPNRVQSSSTSFSVFLHFSNPFWLHGWWLLCCLLRLASFVL | 79900
SAEHQTEAYESDGGRQCVRLLLTSYCSPILIVALHPVLPGRFLCVVKLATQKS | 39900
GIFCSPFFPFFVPLFCPPFPPPSLFPPLCISLPLSMPNSLLFLFTILYEYAGC | 56200
DKRLENAQTLIPDGMKVRPMEDCITEAPTLIMARFNIVLLYLKTRVVLHRNYL | 62400
PIPLGYGSLWMYEFLYFCLLHVVFTICDGIYLLRAELTLIILLHFLLSWDEGN | 47600
MVCFKRSGLSLVFFFFFFFFFLLLVFFLFFFSLLLPIIISLVVRADLLMVHPH | 31200
MMLLLMLMILMMILTMMMLLLLHKQENEGCVLFLFLLWWLWLWFWLWCCWKSS | 35300
KVKKEKKEKKHRRHHHRHRDGSDDERSHKRRRRDDDKRGHRSSRSEHRRRSDS | 29800
STTKSICYVLRHLMITYVFYLSATGIDDLTVLIGNHSHNMIRTIVRSALWISY | 39900
MLSLFSETGCTFLLVGLSIVVGVEKGSFLFYFVYLFTLYLYCGPILLGKLIFM | 49800
SSRYIQTSTLTRLLLTYRQWIFVVVYSHLLLLDHSSQIWWRWMNIFFTLVIWS | 62300

Sequence | transcriptional activation domain activity
SRSRKGRGRRRRGSKASRGSRSSRGSAASSANTSDSSSSSSSSDSDDSSSSSS | 18200
RRARSVVEVAQTDDTGEEEDNNINSSNNINNKKKKIILELENGAETLEGDLLL | 16500
ANLAFPDDNSTNIQLQPFSESQSQNKFDYDMFFRDSSKEGNNLFGEFLEDDDD | 92800
NTPPAKKKRDGKKKAAAAGDMGEGEGGGKKVRKPRKDAGTKRGPNKRTAGATG | 41100
ARTSDYSIAQWRFLTKLLLVHGRWNYNRICKYIVGTFWKEIVFYLTQALYQRY | 45400
NIIALFLVTNQLTTCSVLPLCMGLFKVFDGFVSEGAVLFGSIFAFFSVLVHGY | 61300
MAPKAPEASPPKRGRGRPRKAESEKKTKAYEPTGRPRGRPKGSGGVKKSVAAT | 19600
EWTRLVQNPAASPRLLNGFIRQMLADLPTTSILVLVRTALEVSVESYAQAGST | 58700
PNSSTSMDWLDNVIYTNRFVSGDDGSNSKTKNLDSNMFSNDFNFENQFDEQVS | 91700
MVVFGCRCNVMLYILFCNLRFLLRGAVCIQILTMFILWCAMTEIVLSVLPILS | 47300
LIVVCPCLNRAHPTCLKELQTDYICNMCNSIYQLKYIRFAQLLCFACHVLSLA | 84300
EKKEGAEKEGGEKKEAGGEGEKKVGGEGEKKEGGEGEMKESGVEGGKKEASES | 26600
YGARPAAAAEEEEAAEPAEEEAAGEATEAEAGEEEAEATGEEETAEGEGAEGA | 25500
LIIPIIMDHLYPVPYMAFWDVSCFVNKVYFMQIVWLFNLPFLLHLLITLICYP | 68100
TMYYDAIWLMWKDHSLQGWEVAHNTFDQLHVVLDDHLLYPVLNLLMIVIILPD | 51200
MSNGFFLGLWVLIKRPFFFFFFHLFVMHGVLGGCWDLLVGFVCLHRGFWFLFW | 70700
AATNKYDATIQRMLSRSVFVTCNSWYRVGGTGKNTSIFPGPGMLFWWWTRQAR | 61100
ITLYPPNPYTNEPVPIRPISYLHLSGLLNMYVIRRLRRENWIRIFFRILFPFF | 26700
MLYFFFFYVYNVNIKQYLSIIMILFINGFSFYIYFLFHFLYIFFFFFLTITLS | 88500
RLLIVFAWMCRLGCWIEMDHEARLVLLKFLATFKANSNNVISYKLDQYYLTGL | 80100
